Patent publication US20030223975, “Transcriptional regulation of PTP-1B” (Cold Spring Harbor Laboratory, published 2003)

Key:
[1] = target: T1, YB-1 (B-TEP, purified from Rat1 nuclear extract) (Rattus norvegicus, UniProt P62961 SEQ:1-322); assay: pulldown; purified on -167/-132 affinity column, eluted at 0.8 M NaCl; complex B in EMSA
Protocol: To purify proteins within the TEP sequence complexes, nuclear extracts were subjected to SP-Sepharose chromatography followed by DNA-affinity chromatography (FIG. 3A). Nuclear extracts (approximately 50 mg) were obtained from Rat1 cells as described above. The extracts were dialyzed against starting buffer (0.1 M NaCl in 20 mM HEPES pH 7.9, 20 mM NaF, 1 mM Na₃VO₄, 1 mM Na₄P₂O₇, 0.125 μM okadaic acid, 1 mM EDTA, 1 mM EGTA, 1 mM DTT, 0.5 mM PMSF, 1 μg/ml leupeptin, 1 μg/ml aprotinin, 1 μg/ml pepstatin, 0.2% NP-40, 5% glycerol) and then applied to SP Sepharose (20 ml) (Pharmacia Biotech, Piscataway, N.J.) equilibrated with the starting buffer. Proteins were eluted in a stepwise manner with 0.2, 0.3, 0.4, 0.6, and 0.8 M NaCl containing nuclear extraction buffer. Each fraction (5 μl aliquots) was assayed by EMSA using ³²P-labelled probes as described above. Fractions containing Complex B (detected by the ³²P-labeled −167/−132 probe, see FIG. 2B) were dialyzed to 0.2 M NaCl containing starting buffer and then applied to a double-stranded DNA-conjugated affinity column. The sequence of the DNA used for affinity chromatography corresponded to nucleotides −167 to −132 from the transcription start site as follows:
The DNA was biotinylated according to standard methods. […]

GST-YB-1 = GST-YB-1 (UniProt P67809 P67809:1-324); assay: EMSA; 1 or 10 ng GST-YB-1; binding shown in figure; conditions: tags: N-terminal GST fusion, expressed in E. coli BL21 (plasmid gift of K. Kohno)
GST-YB-1, sequence (P67809 whole entry, the tested form may be a part, one chain of several): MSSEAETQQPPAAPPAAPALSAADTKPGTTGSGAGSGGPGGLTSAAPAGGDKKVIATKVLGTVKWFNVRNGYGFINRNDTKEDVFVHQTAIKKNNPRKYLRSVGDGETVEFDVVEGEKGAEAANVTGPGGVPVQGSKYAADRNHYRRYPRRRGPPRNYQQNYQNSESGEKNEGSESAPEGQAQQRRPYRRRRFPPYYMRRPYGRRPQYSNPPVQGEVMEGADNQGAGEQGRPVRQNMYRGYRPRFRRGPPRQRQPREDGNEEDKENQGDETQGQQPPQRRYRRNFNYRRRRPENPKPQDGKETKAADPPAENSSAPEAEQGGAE
Text: Complex formation of YB-1 with the PTP1B enhancer was confirmed using purified YB-1 from a different source. Expression plasmids for GST and for GST-YB-1 (gift from Dr. K. Kohno) (see Izumi et al., Nucleic Acids Res. 29:1200-07 (2001)) were each separately transfected into E. coli BL21 cells. Recombinant proteins were expressed and purified (see Frangioni and Neel, Anal. Biochem. 210:179-87 (1993)) and analyzed by SDS-PAGE as shown in FIG. 9B (left panel). The interaction between GST-tagged YB-1 and the PTP1B enhancer probe was analyzed by EMSA. Purified GST or GST-YB-1 proteins (1 or 10 ng) were combined with double-stranded DNA ³²P-labelled probe −167/−132 (see above) in the absence or presence of unlabeled double-stranded DNA probe −167/−132 or the deletion mutant probe −167/−132 (Δ−155/−144) (see above), which were tested as competitors of complex formation.

[2] = target: T1, YB-1 (B-TEP, purified from Rat1 nuclear …); assay: EMSA; 10 ng YB-1; complex supershifted by anti-YB-1; anti-GATA1/GATA2 as controls; 25 C; conditions: label: 32P (EMSA) or biotin (pull-down)
Protocol: To further examine the interaction of YB-1 with the PTP1B enhancer, an EMSA was performed using purified YB-1 (10 ng) and the double-stranded DNA ³²P-labelled −155/−132 probe (see methods described above). A YB-1/DNA probe complex was detected by incubating the complex with the anti-YB-1 antibody (see above). Included as controls were anti-GATA1 (sc266X) and anti-GATA2 (sc-9008X) antibodies (Santa Cruz Biotechnology, Inc., Santa Cruz, Calif.). Purified YB-1 was incubated without antibody or separately with each antibody for 1 hour at 4° C., followed by addition of the DNA probe for 20 minutes at 25° C.

T1 sequence (P62961 other isoform, or with tags, fused parts or gaps): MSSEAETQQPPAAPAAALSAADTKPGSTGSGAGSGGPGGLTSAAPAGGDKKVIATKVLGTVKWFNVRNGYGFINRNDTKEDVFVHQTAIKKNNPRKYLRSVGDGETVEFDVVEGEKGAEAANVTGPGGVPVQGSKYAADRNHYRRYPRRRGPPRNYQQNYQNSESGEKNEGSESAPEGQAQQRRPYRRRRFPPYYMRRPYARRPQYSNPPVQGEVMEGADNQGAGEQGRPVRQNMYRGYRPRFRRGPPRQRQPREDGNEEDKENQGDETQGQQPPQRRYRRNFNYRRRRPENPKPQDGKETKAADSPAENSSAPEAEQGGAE

Row | Binder | binding result [1] | binding result (GST-YB-1) | binding result [2]
1 | PTP1B enhancer -167/-132 (dsDNA) DNA 1: ACGCGCGCTATTAGATATCTCGCGGTGCTGGGGCCA DNA 2: TGGCCCCAGCACCGCGAGATATCTAATAGCGCGCGT | binds | binds | –
2 | PTP1B enhancer -155/-132 (dsDNA) DNA 1: AGATATCTCGCGGTGCTGGGGCCA DNA 2: TGGCCCCAGCACCGCGAGATATCT | – | – | binds
